From patent publication US20180011102A1 (University of Texas, published 2018) come the findings set out here.

Sequences and labels used below:
B1: SFB-PDHK3 expressed in U87 cells (enzyme)
chain: not shown
notes: not shown: SFB tag, pcDNA6/SFB vector
B2: endogenous PDHK1 of U87 cell mitochondria (enzyme)
chain: not shown
notes: also called pyruvate dehydrogenase kinase 1
B3: endogenous PGK1 (phosphoglycerate kinase 1) of U87 human GBM cells (enzyme)
chain: SLSNKLTLDKLDVKGKRVVMRVDFNVPMKNNQITNNQRIKAAVPSIKFCLDNGAKSVVLMSHLGRPDGVPMPDKYSLEPVAVELKSLLGKDVLFLKDCVGPEVEKACANPAAGSVILLENLRFHVEEEGKGKDASGNKVKAEPAKIEAFRASLSKLGDVYVNDAFGTAHRAHSSMVGVNLPQKAGGFLMKKELNYFAKALESPERPFLAILGGAKVADKIQLINNMLDKVNEMIIGGGMAFTFLKVLNNMEIGTSLFDEEGAKIVKDLMSKAEKNGVKITLPVDFVTADKFDENAKTGQATVASGIPAGWMGLDCGPESSKKYAEAVTRAKQIVWNGPVGVFEWEAFARGTKALMDEVVKATSRGCITIIGGGDTATCCAKWNTEDKVSHVSTGGGASLELLEGKVLPGVDALSNI
notes: Endogenous protein from cell lysates
B4: SFB-PDHK4 expressed in U87 cells (enzyme)
chain: not shown
notes: as for B1
B5: endogenous TOM20 of U87 cells (receptor, human, UniProt Q15388 1-145, looked up)
chain: MVGRNSAIAAGVCGALFIGYCIYFDRKRRSDPNFKNRLRERRKKQKLAKERAGLSKLPDLKDAEAVQKFFLEEIQLGEELLAQGEYEKGVDHLTNAIAVCGQPQQLLQVLQQTLPPPVFQMLLTKLPTISQRIVSAQSLAEDDVE

For assay [1], the target named is B3. Kind of assay: streptavidin pull-down from mitochondrial fractions of U87 cells (FIG. 14C).
Description: (§1) Immunoblotting analyses were performed with the indicated antibodies. […] Immunoblotting analyses were performed with the indicated antibodies. […] Immunoblotting analyses were performed with the indicated antibodies. […] ATP concentrations in mitoplast isolated from U87 or U251 cells treated with or without hypoxia for 6 h were measured. […] Mitochondria fractions of U87 cells treated with or without hypoxia for 6 h were immunodepleted with or without an anti-PDHK1 pT338 antibody. Immunoblotting analyses were performed with the indicated antibodies. […] U87 and U251 cells expressing PGK1 shRNA were reconstituted to express WT rPGK1 or rPGK1 T378P. Immunoblotting analyses were performed with the indicated antibodies. FIGS. 14M-N. U87 and U251 cells with PGK1 shRNA and with reconstituted expression of WT rPGK1 or rPGK1 T378P were stimulated with or without hypoxia for 6 h. Mitochondria fractions were prepared. Immunoblotting analyses were performed with the indicated antibodies. […] Data represent the means±SD of three independent experiments. Immunoblotting analyses were performed with an anti-PGK1 antibody. […] U87 cells were stimulated with or without hypoxia for 6 h. Immunoblotting analyses of mitochondrial lysates were performed with the indicated antibodies.
Assay [2] has as its target B3. Kind of assay: PGK1 immunoprecipitated from mitochondria of U87 cells, anti-PDHK1 immunoblot (FIG. 4B).
In assay [3] the target is SFB-PDHK2 expressed in U87 cells (human, UniProt Q15119 1-407). Kind of assay: streptavidin pull-down from mitochondrial fractions of U87 cells (FIG. 14C).
Description: as §1
The target in assay [4] is T1, SFB-PGK1 Δ1-57 (human, UniProt P00558 58-417).
T1 construct: also called PGK1 Δ1-57 mutant; not shown: C-terminal SFB (S-Flag-Biotin) tag and any linker or added start Met of the pcDNA6/SFB construct
T1 sequence: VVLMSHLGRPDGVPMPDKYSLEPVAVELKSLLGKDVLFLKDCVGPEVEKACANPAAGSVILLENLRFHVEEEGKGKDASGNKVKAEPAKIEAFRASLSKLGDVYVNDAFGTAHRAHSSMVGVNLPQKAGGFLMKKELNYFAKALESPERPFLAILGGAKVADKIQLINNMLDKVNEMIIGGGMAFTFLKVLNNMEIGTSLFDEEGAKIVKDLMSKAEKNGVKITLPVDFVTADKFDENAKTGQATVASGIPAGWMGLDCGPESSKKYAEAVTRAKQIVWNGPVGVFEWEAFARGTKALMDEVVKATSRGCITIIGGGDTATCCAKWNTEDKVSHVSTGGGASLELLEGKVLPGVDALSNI
In words: streptavidin pull-down from U87 cells (FIG. 3D).

In assay [5] the target is T2, SFB-PGK1 R39/K41A (human, UniProt P00558 1-417).
T2 construct: not shown: SFB (S-Flag-Biotin) tag, pcDNA6/SFB vector
T2 sequence (looked up): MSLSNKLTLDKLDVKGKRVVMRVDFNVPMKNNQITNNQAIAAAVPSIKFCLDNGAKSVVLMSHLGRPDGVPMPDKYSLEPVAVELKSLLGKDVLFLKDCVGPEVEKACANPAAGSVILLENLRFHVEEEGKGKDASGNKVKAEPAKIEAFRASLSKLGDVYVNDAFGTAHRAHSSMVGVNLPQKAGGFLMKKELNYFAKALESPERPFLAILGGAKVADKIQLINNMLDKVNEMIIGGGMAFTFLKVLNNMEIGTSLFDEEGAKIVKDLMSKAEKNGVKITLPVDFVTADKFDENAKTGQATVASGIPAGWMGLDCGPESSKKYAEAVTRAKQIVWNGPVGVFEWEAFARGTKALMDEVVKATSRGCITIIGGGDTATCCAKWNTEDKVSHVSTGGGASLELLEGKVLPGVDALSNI
Kind of assay: streptavidin pull-down from U87 cells (FIG. 3E).

For B1, the binding result in assay [1] is given as “no binding”. Consider B2, for which the binding result in assay [2] is recorded as “binds”. As to B3, the binding result in assay [3] is reported as “no binding”. B4: the binding result in assay [1] is on record as “no binding”. Take B5: the binding result in assay [4] and in assay [5] was “no binding” throughout.
